The results in this text go back to paper PMC11320721 (Nature structural & molecular biology, 2024).

No end group written: not given here. Me3 = trimethyl (lysine)

Assay [1] concerns the target T1, PZP domain of JADE1 (JADE1PZP), wild type (human, UniProt Q6IE81 201-373). The assay is described as follows: NMR titration.
For assay [2], the target named is T1, PZP domain of JADE1 (JADE1PZP), wild …. Kind of assay: other fluorescence titration.
In the next assay the target is E215K mutant of JADE1PZP (human, UniProt Q6IE81 201-373, E215K). Kind of assay: other fluorescence titration.
E215K mutant of JADE1PZP, sequence (Q6IE81 201-373 E215K): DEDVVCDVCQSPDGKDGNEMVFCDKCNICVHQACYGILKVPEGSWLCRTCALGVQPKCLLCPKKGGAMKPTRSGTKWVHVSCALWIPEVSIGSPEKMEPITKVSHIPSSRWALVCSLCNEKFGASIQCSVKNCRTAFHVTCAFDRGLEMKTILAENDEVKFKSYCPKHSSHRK

T1 sequence (Q6IE81 201-373): as the sequence (Q6IE81 201-373 E215K) above, with K15E counted along it

ARTK(Me3)QTARKSTG (peptide, UniProt P68431 2-13, looked up) [H3K4me3_(1–12) peptide] showed a Kd in assay [1] of 3000 µM.

ARTKQTARKSTG (peptide, UniProt P68431 2-13, looked up) [H3_(1–12) peptide (residues 1–12 of H3)] displayed a Kd in assay [2] of 0.9 µM. Besides, the “fold decrease in binding affinity against wild type JADE1PZP” value with E215K mutant of JADE1PZP came to 3 fold.
